Assay results published in the supplement of paper PMC9233669.
Fewer inactive variants are shown than the library holds.

Legend:
[1] = system: biotinyl-Phe-oxazolone; test: self-aminoacylation, catalytic enhancement (BFO) (fold over background); higher = more active; k-Seq, kA / k0A0; sequences stand for … in GGGAAUGGAUCCACAUCUACGAAUUC…UUCACUGCAGACUUGACGAAGCUG
Method in brief: (§1)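 Mutagenized RNA pools with a 21-nt variable region (0.43 μM) reacted with each biotinyl-aminoacyl-oxazolone at 2–1250 μM. Reactions ran in 50 μL HEPES/NaCl/KCl/MgCl2/CaCl2 buffer with 5% acetonitrile, pH 6.9–7.0, for 90 minutes at room temperature. Streptavidin-captured RNA was quantified by triplicate qPCR and Illumina sequencing, and per-sequence fraction reacted was fit to a pseudo-first-order model with 1000 bootstraps. Catalytic enhancement is median kA divided by the uncatalyzed rate, the low-activity peak of a bimodal Gaussian fit.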

[2] = system: biotinyl-Met-oxazolone; test: self-aminoacylation, catalytic enhancement (BMO) (fold over background); higher = more active; k-Seq, kA / k0A0; sequences stand for … in GGGAAUGGAUCCACAUCUACGAAUUC…UUCACUGCAGACUUGACGAAGCUG
Method in brief: as §1

[3] = system: biotinyl-Val-oxazolone; test: self-aminoacylation, catalytic enhancement (BVO) (fold over background); higher = more active; k-Seq, kA / k0A0; sequences stand for … in GGGAAUGGAUCCACAUCUACGAAUUC…UUCACUGCAGACUUGACGAAGCUG
Method in brief: as §1

[4] = system: biotinyl-Ile-oxazolone; test: self-aminoacylation, catalytic enhancement (BIO) (fold over background); higher = more active; k-Seq, kA / k0A0; sequences stand for … in GGGAAUGGAUCCACAUCUACGAAUUC…UUCACUGCAGACUUGACGAAGCUG
Method in brief: as §1

[5] = system: biotinyl-Leu-oxazolone; test: self-aminoacylation, catalytic enhancement (BLO) (fold over background); higher = more active; k-Seq, kA / k0A0; sequences stand for … in GGGAAUGGAUCCACAUCUACGAAUUC…UUCACUGCAGACUUGACGAAGCUG
Method in brief: as §1

[6] = system: biotinyl-Trp-oxazolone; test: self-aminoacylation, catalytic enhancement (BWO) (fold over background); higher = more active; k-Seq, kA / k0A0; sequences stand for … in GGGAAUGGAUCCACAUCUACGAAUUC…UUCACUGCAGACUUGACGAAGCUG
Method in brief: as §1

Sequence | self-aminoacylation [1] | self-aminoacylation [2] | self-aminoacylation [3] | self-aminoacylation [4] | self-aminoacylation [5] | self-aminoacylation [6]
AAAAUUGCUAAUAGUCGCAAG [Fam3.1 aminoacylation ribozyme variant] | 2.58 | 1.33 | 1.73 | 1.93 | 1.78 | 3.04
AAAUAUGCUAAUAGUCGCAAG [Fam3.1 aminoacylation ribozyme variant] | 2.27 | 1.45 | 1.55 | 2.03 | 1.44 | 2.25
AAAUUUGCUAAUAGUCGCUAG [Fam3.1 aminoacylation ribozyme variant] | 2.81 | 1.22 | 1.58 | 1.73 | 1.38 | 2.84
AACUGUGCUAAUAGUCGCAAG [Fam3.1 aminoacylation ribozyme variant] | 2.41 | 1.81 | 1.61 | 2.14 | 2.35 | 2.34
AACUUUGCUAAUAGCCGCAAG [Fam3.1 aminoacylation ribozyme variant] | 2.77 | 2.28 | 1.93 | 2.25 | 2.23 | 2.14
AACUUUGCUAAUAGUCGAAAG [Fam3.1 aminoacylation ribozyme variant] | 2.63 | 2.31 | 1.87 | 2.25 | 2.47 | 2.01
AACUUUGCUAAUAGUCGCAAA [Fam3.1 aminoacylation ribozyme variant] | 13.6 | 3.32 | 2.31 | 2.8 | 3.39 | 2.36
AACUUUGCUAAUAGUCGUAAG [Fam3.1 aminoacylation ribozyme variant] | 3.97 | 1.21 | 1.28 | 1.44 | 1.59 | 2.33
AACUUUGCUAAUCGUCGCAAG [Fam3.1 aminoacylation ribozyme variant] | 9.09 | 2.21 | 1.89 | 1.93 | 2.66 | 2.15
AACUUUGCUCAUAGUCGCAAG [Fam3.1 aminoacylation ribozyme variant] | 10.8 | 2 | – | 2.01 | 2.47 | 2.34
AACUUUGCUUAUAGUCGCAAG [Fam3.1 aminoacylation ribozyme variant] | 3.75 | 3.18 | 2.2 | 2.58 | 2.98 | 2.98
AACUUUGUUAAUAGUCGCAAG [Fam3.1 aminoacylation ribozyme variant] | 3.96 | 2.26 | 2.06 | 2.29 | 2.47 | 2.76
AAGACCCUGGUCAUCGAGUGA [Fam2.1 aminoacylation ribozyme variant] | 21.6 | 9.05 | 4.66 | 4.58 | 10.2 | 9.36
AAGAUCGCUAAUAGUCGCAAG [Fam3.1 aminoacylation ribozyme variant] | 3.04 | 1.79 | 1.51 | 1.86 | 2.08 | 1.96
AAGAUUGCGAAUAGUCGCAAG [Fam3.1 aminoacylation ribozyme variant] | 1.72 | 1.17 | 1.71 | 1.47 | 1.33 | 2.46
AAGAUUGCUAAGAGUCGCAAG [Fam3.1 aminoacylation ribozyme variant] | 1.73 | 1.41 | 1.29 | 1.41 | 1.3 | 2.56
AAGAUUGCUAAUAGUCUCAAG [Fam3.1 aminoacylation ribozyme variant] | 1.48 | 0.751 | 1.08 | 1.1 | 1.09 | 1.18
AAGAUUGCUACUAGUCGCAAG [Fam3.1 aminoacylation ribozyme variant] | 2.44 | 1.27 | 1.32 | 1.55 | 1.73 | 1.98
AAGAUUUCUAAUAGUCGCAAG [Fam3.1 aminoacylation ribozyme variant] | 3.12 | 1.71 | 1.45 | 1.81 | 1.49 | 2.17
AAGCUUGUUAAUAGUCGCAAG [Fam3.1 aminoacylation ribozyme variant] | 3.63 | 2.26 | – | 2.21 | 2.38 | 2.3
AAGUUCGCUAAUAGUCGCAAA [Fam3.1 aminoacylation ribozyme variant] | 4.42 | 2.01 | – | 2.49 | 2.63 | 2.76
AAGUUCGCUAAUAGUCGCAAU [Fam3.1 aminoacylation ribozyme variant] | 3.19 | 2.1 | 2.03 | – | – | 2.44
AAUACCCUGUUCAUCGAGUGA [Fam2.1 aminoacylation ribozyme variant] | 9.83 | 3 | 2.14 | – | 3.46 | 4.5
AAUUUAGCUAAUAGUCGCAAG [Fam3.1 aminoacylation ribozyme variant] | 2.58 | – | – | 2.02 | – | –
AAUUUUACUAAUAGUCGCAAG [Fam3.1 aminoacylation ribozyme variant] | 2.67 | – | – | 2.01 | – | –
ACUACCCUCGUCAUCGAGUGA [Fam2.1 aminoacylation ribozyme variant] | 4.34 | 2.71 | 2.32 | – | 3.13 | 2.14
AGGUUUGCCAAUAGUCGCAAG [Fam3.1 aminoacylation ribozyme variant] | 9.52 | 2.31 | – | 2.1 | 2.31 | 3.7

Sequence | self-aminoacylation [1] | self-aminoacylation [2] | self-aminoacylation [3] | self-aminoacylation [4] | self-aminoacylation [5] | self-aminoacylation [6]
AGUCACCUAGGUCAUCAGGUG [Fam2.2 aminoacylation ribozyme variant] | 8.84 | – | 2.09 | – | 2.1 | –
AUUACCCUGUUCAUCGAGUGU [Fam2.1 aminoacylation ribozyme variant] | – | 2.84 | 2.02 | – | 2.1 | 3.95
AUUCACCAAGGUCAUCGGGGG [Fam2.2 aminoacylation ribozyme variant] | 11.9 | 2.23 | – | 2.02 | 2.72 | 2.91
AUUCACCCAGCUCAUCGGGUG [Fam2.2 aminoacylation ribozyme variant] | 6.9 | 2.49 | 2.19 | 2.73 | 2.43 | –
AUUCACCCAGGUCAUCGGGUU [Fam2.2 aminoacylation ribozyme variant] | 6.46 | 2.16 | 2.14 | – | 2.65 | –
AUUCACCUAGCUGAUCGGGUG [Fam2.2 aminoacylation ribozyme variant] | 8.31 | – | 2.63 | 2.29 | 2.82 | –
AUUCACCUAGGACAUCGGGGG [Fam2.2 aminoacylation ribozyme variant] | 10.4 | 3.13 | 2.18 | – | 2.63 | –
AUUCACCUAGGUCAUCGCGUC [Fam2.2 aminoacylation ribozyme variant] | 9.82 | 2.3 | 2.15 | – | – | 2.85
AUUCACCUGGGUCAUCGGCUG [Fam2.2 aminoacylation ribozyme variant] | 8.1 | – | 2.54 | 2.01 | 2.27 | –
CAACUUCAAACAAUCGGGCUG [Fam1A.1 aminoacylation ribozyme variant] | 23.8 | – | 2.25 | 2.18 | 2.58 | 20.1
CCACACUGCAAGCAAUCGGGC [Fam1B.1 aminoacylation ribozyme variant] | – | – | 2.56 | – | – | 3
CCACACUUCAAGCAGUCGGGC [Fam1B.1 aminoacylation ribozyme variant] | – | 2.5 | 2.36 | 2.15 | 2.19 | –
CCACACUUCAAGCAUUCCGUC [Fam1B.1 aminoacylation ribozyme variant] | – | 2.55 | 3 | 3.19 | 2.51 | 3.14
CCACACUUCAAGCCAUCGGUU [Fam1B.1 aminoacylation ribozyme variant] | 2.81 | – | 2.18 | – | – | 2.06
CCACACUUGAAGCAAUCGGCC [Fam1B.1 aminoacylation ribozyme variant] | – | – | 3.19 | – | 2.24 | 2.29
CCAGACUUCAAGCAAUCGGGC [Fam1B.1 aminoacylation ribozyme variant] | – | – | 3.13 | 2.71 | 2.69 | 3.72
CCCCACUCCAAGCAAUCGGUC [Fam1B.1 aminoacylation ribozyme variant] | 8.62 | – | 2.19 | – | – | 6.53
CCCCACUUCAAGCAGUCGGUC [Fam1B.1 aminoacylation ribozyme variant] | 3.77 | – | 2.23 | – | 2.2 | 3.29
CCCCACUUCGAGCAAUCGGUC [Fam1B.1 aminoacylation ribozyme variant] | 5.48 | – | 2.51 | 2.2 | 2.16 | 4.05
CCCCAUUUCAAGCAAUCGGUC [Fam1B.1 aminoacylation ribozyme variant] | 9.72 | – | 2.07 | 2.26 | – | 7.54
CCGCACCUCAAGCAAUCGGUC [Fam1B.1 aminoacylation ribozyme variant] | 6.19 | – | 2.16 | – | – | 5.62
CCGCUUCAAACAAUCGGUCUG [Fam1A.1 aminoacylation ribozyme variant] | 257 | 2.68 | 2.4 | – | 4.82 | 95.9
CUACGUCAAACAAUCGGCCUG [Fam1A.1 aminoacylation ribozyme variant] | – | 2.29 | 2.84 | 2.56 | 2.69 | 4.49
CUACUUCAAACAAUCGGCCGG [Fam1A.1 aminoacylation ribozyme variant] | 2.44 | – | – | 2.09 | – | –
CUUCACCUAGGUCAUCGGGCG [Fam2.2 aminoacylation ribozyme variant] | – | 3.57 | 2.97 | 2.36 | 2.75 | 4.39
GAGUUUGCUAAUAGUCGCAAU [Fam3.1 aminoacylation ribozyme variant] | 2.19 | – | – | 2.21 | – | 3.41
UUUACCCUGGUCAUCGAGGGA [Fam2.1 aminoacylation ribozyme variant] | 3.55 | – | 2.19 | – | – | 2.85
